Patent US20200129630A1, “METHODS FOR TREATING CANCER” (BicycleRD Limited, priority 2018, published 2020)
Several values for one entry are separate records, joined by “and”; a condition that tells them apart may be missing. Equal entries are not always repeated. Numbered stars: 1 amine (or outer) side, 2 acyl side, 3 side chain; on linkers, the order of the positions; unused ones are H or OH. Bridge positions count the residues as written; N and C are the ends. Square brackets hold non-standard residues; d marks the D form. Peptide text beside a SMILES is read from it. * marks the point of attachment. X1 = COc1cc2cc(c1Cl)N(C)C(=O)C[C@H](OC(=O)[C@H](C)N(C)C(=O)CCSSC(C)CCC(=O)*)[C@]1(C)O[C@H]1[C@H](C)[C@@H]1C[C@@](O)(NC(=O)O1)[C@H](OC)/C=C/C=C(\C)C2; 1Nal = N[C@@H](Cc1cccc2ccccc12)C(=O)O; TBMB = c1c(C[*:1])cc(C[*:3])cc1C[*:2]; Tle = CC(C)(C)[C@H](N)C(=O)O; βAla = NCCC(=O)O; Sar = CNCC(=O)O

How the values were obtained:
[1] = GLP-compliant 28-day repeat dose toxicity study, monkey; type: in vivo, Cynomolgus monkeys
Procedure: In a GLP-compliant study in Cynomolgus monkeys, the highest non-severely toxic dose (HNSTD) of BT1718 was established to be 18 mg/m^2 administered twice weekly, equivalent to a human dose of 0.48 mg/kg. In a GLP-compliant study in the rat, the MTD was not reached with the highest administered dose 6 mg/m^2 twice weekly. At this dose level, there was kidney toxicity (with no effect on clinical condition) and also testicular toxicity. After 28 days off-dose, there was evidence of partial recovery of kidney-related findings, but no recovery of testicular effects at this dose level. […] Therefore, the MTD for rat for twice weekly dosing was considered to be between 1 and 1.5 mg/kg.

[2] = Preclinical PK and toxicokinetics, summary across studies; parameters: species or system mice and rats; conditions: mouse and rat, in vivo, intravenous, read-out: half-life estimate
Source text: BT1718 has low molecular weight (3.5 kDA) in comparison to other conjugated toxin approaches, which enables rapid penetration of tumor tissue. […] Hypothesized advantages over ADCs therefore include reduced systemic exposure of normal tissues to circulating BT1718, the ability to manage toxicity during recovery periods, as well as the improved tumor penetrance. Other potential advantages include a fixed peptide:conjugate ratio of 1:1 (c.f. ADCs where variable conjugation results in mixed populations) and with more scalable manufacturing as a small molecule (c.f. biologics such as ADCs).

[3] = Monkey GLP study toxicokinetics; type: in vivo; conditions: plasma, Day 1 male; for clearance / half-life / Cmax / Vd: Cynomolgus; for Cmax: read-out: C0/Cmax; for Vd: read-out: Vdss
Source text: In a repeat dose experiment with BT1718 no significant gender-related differences in the TK parameters for the rat or monkey were noted. Exposure in both the rat and monkey increased approximately linearly with dose and was maintained for 28 days on repeat dosing. […] Plasma clearance and volume of distribution were similar across BT1718 dose and consistent with the PK studies.

[4] = Non-GLP toxicity studies, dog; type: in vivo
Source text: These include in vitro tissue microarray in human, rat and monkey tissues and in vitro and in vivo assessment of immunogenicity. In vivo assessments include single dose toxicity in mice and rats, multiple dose range finding studies in mice, rats, dogs and monkeys (non-GLP) and GLP-compliant multiple dose studies in rats and monkeys consisting of 28-day on study phase with a 28-day recovery period.

[5] = CD1 mouse dose response PK study
[6] = Clinical pharmacokinetics of BT1718, 1 h intravenous infusion; type: in vivo, patients; conditions: for clearance / half-life / Vd: human, plasma
Source text: Intact BT1718 and total DM1 (DM1 in BT1718, any peptidyl-DM1 metabolites of BT1718, and other DM1-containing mixed disulfides and free DM1) will be measured in plasma according to agreed standard operating procedures (SOPs) and validated methods in Phase I, dose escalation phase (Stage 1 and 2) and potentially in Phase IIa, expansion phase (Parts A and B), dependent on emerging data.
The plasma concentration/time data will be analyzed using non-compartmental methods. The PK parameters to be determined for intact BT1718 include Cmax, Tmax, AUC, t1/2, total body clearance (CLT) and Vdss. The PK parameters to be determined for total DM1 include Cmax, Tmax, AUC and t1/2.
The preliminary clinical pharmacokinetic data for BT1718 following a 1 hour intravenous infusion to patients are shown in Table 13 below.

[7] = 2.4 mg/m2, Monkeys GLP, 2.4 mg/m^2 IV
[8] = 6 mg/m2, Monkeys GLP, 6 mg/m^2 IV
[9] = 12 mg/m2, Monkeys GLP, 12 mg/m^2 IV
[10] = 18 mg/m2, Monkeys GLP, 18 mg/m^2 IV
[11] = dogs 1 mg/kg, 20 mg/m^2 twice weekly
[12] = male, CD1, mouse, plasma, iv, 15 mg/m2
[13] = male, CD1, mouse, plasma, iv, 30 mg/m2
[14] = male, CD1, mouse, plasma, iv, 60 mg/m2
[15] = 9.6 mg/m^2, 1 h IV infusion, individual patients

COc1cc2cc(c1Cl)N(C)C(=O)C[C@H](OC(=O)[C@H](C)N(C)C(=O)CCSSC(C)CCC(=O)NCCC(=O)N(C)CC(=O)N(C)CC(=O)N(C)CC(=O)N(C)CC(=O)N(C)CC(=O)N(C)CC(=O)N(C)CC(=O)N(C)CC(=O)N(C)CC(=O)N(C)CC(=O)N[C@@H](C)C(=O)N[C@H]1CSCc3cc4cc(c3)CSC[C@H](NC(=O)[C@@H](C)NC(=O)[C@H](Cc3cccc5ccccc35)NC(=O)[C@H](CCC(=O)O)NC(=O)[C@H](CC(N)=O)NC(=O)[C@@H](C)NC1=O)C(=O)N[C@@H](CCC(=O)O)C(=O)N[C@@H](CC(=O)O)C(=O)N[C@@H](Cc1ccccc1)C(=O)N[C@@H](Cc1ccc(O)cc1)C(=O)N[C@@H](CC(=O)O)C(=O)N[C@@H](C(C)(C)C)C(=O)N[C@H](C(N)=O)CSC4)[C@]1(C)O[C@H]1[C@H](C)[C@@H]1C[C@@](O)(NC(=O)O1)[C@H](OC)/C=C/C=C(\C)C2 (stereo partly shown) [BT1718] ({X1-βAla}-[Sar][Sar][Sar][Sar][Sar][Sar][Sar][Sar][Sar][Sar]AC[dA]NE[1Nal][dA]CEDFYD[Tle]C-NH2; linker 12-18-25 via TBMB (inferred))
HNSTD ([1]; 28 day-repeat dose GLP monkey study, twice weekly): 1.5 mg/kg
highest non-severely toxic dose (HNSTD) ([1]; Cynomolgus monkeys, GLP, twice weekly): 18 mg/m^2
GI-related findings ([1]; GLP monkey): No GI-related findings
bladder changes ([1]; GLP monkey): No bladder changes
liver toxicity ([1]; GLP monkey up to 1.5 mg/kg, 18 mg/m^2 twice weekly): No liver toxicity
local toxicity at or around injection site ([1]; GLP monkey, 0.5 mg/kg (6 mg/m^2) twice weekly and above): black colouration of the skin
renal changes ([1]; GLP monkey, highest dose tested 1.5 mg/kg (18 mg/m^2)): No renal changes
onset dose of minimal axonal degeneration ([1]; GLP monkey, twice weekly): 1 mg/kg
HNSTD, equivalent human dose ([1]; from 18 mg/m^2 twice weekly in monkeys): 0.48 mg/kg
anti-drug antibodies (ADAs) in serum ([1]; monkey 28-day GLP study): negative
reproductive organ findings ([1]; monkey studies): No changes in reproduction organs
increase in platelets ([1]; monkeys 1 mg/kg (12 mg/m^2) twice weekly or above): 1.4-2.5 ×
lymphoid findings ([1]; monkeys 1 mg/kg or 1.5 mg/kg twice weekly): Reversible thymus atrophy and decreased germinal centres in lymph nodes
white blood cell (WBC) reduction, maximum ([1]; monkeys, onset 0.5 mg/kg (6 mg/m^2) twice weekly, reversible): 0.11 ×
reticulocyte reduction, maximum ([1]; monkeys, onset 1 mg/kg (12 mg/m^2) twice weekly, reversible): 0.2 ×
half-life [2]: 15 to 30 min
clearance [3, 7]: 13.4 ± 4.7 mL/min/kg
half-life [3, 7]: 12.6 min
Cmax [3, 7]: 200 ± 40 nM
Vd [3, 7]: 0.24 ± 0.05 L/kg
clearance [3, 8]: 8.8 ± 0.8 mL/min/kg
half-life [3, 8]: 13.8 min
Cmax [3, 8]: 670 ± 40 nM
Vd [3, 8]: 0.17 ± 0.02 L/kg
clearance [3, 9]: 8.2 ± 0.6 mL/min/kg
half-life [3, 9]: 21.6 min
Cmax [3, 9]: 1210 ± 90 nM
Vd [3, 9]: 0.21 ± 0.01 L/kg
clearance [3, 10]: 6.7 mL/min/kg
half-life [3, 10]: 22.8 min
Cmax [3, 10]: 2530 nM
Vd [3, 10]: 0.16 L/kg
AUC [3, 7]: 0.08 ± 0.02 µM·h
AUC [3, 8]: 0.28 ± 0.03 µM·h
AUC [3, 9]: 0.59 ± 0.14 µM·h
AUC [3, 10]: 1.09 µM·h
GI findings ([4]; dog 1 mg/kg (20 mg/m^2) twice weekly): Slight to moderate small intestinal degeneration
bladder findings ([4]; dog, 14 mg/m^2 twice weekly): Bladder epithelial degeneration
hepatic findings [4, 11]: Elevated liver enzymes
peripheral haematology [4, 11]: significant decreases in WBCs
renal findings [4, 11]: Moderate renal tubule degeneration and epithelial mitosis
AUC ([5]; CD1, mouse, plasma, intravenous, 10 mg/kg): 5.3 µM·h
AUC ([5]; CD1 mouse, male, 30 mg/m^2 IV): 5.3
AUC ([5]; CD1 mouse, male, 60 mg/m^2 IV): 11.6
AUC ([5]; male, CD1, mouse, plasma, intravenous, 20 mg/kg): 11.6 µM·h
AUC [5, 12]: 2.8 µM·h
Cmax [5, 12]: 9300 nM
Vd [5, 12]: 0.2 L/kg
clearance [5, 12]: 8.4 mL/min/kg
half-life [5, 12]: 19.8 min
Cmax ([5]; male, CD1, mouse, plasma, iv, 20 mg/kg): 38200 nM
Vd [5, 13]: 0.27 L/kg
clearance [5, 13]: 9 mL/min/kg
half-life [5, 13]: 20.4 min
Vd [5, 14]: 0.22 L/kg
clearance [5, 14]: 8.2 mL/min/kg
half-life [5, 14]: 20.4 min
CLp [6, 15]: 4.4 mL/min/kg and 10.2 mL/min/kg
Vss [6, 15]: 0.18 L/kg
t½ [6, 15]: 17 min and 14 min
clearance ([6]; intravenous, Data for all patients, read-out: CLp): 10 mL/min/kg
half-life ([6]; intravenous, Data for all patients, read-out: t½): 18 min
clearance ([6]; intravenous, Data for cycle 1 only, read-out: CLp): 12 mL/min/kg
half-life ([6]; intravenous, Data for cycle 1 only, read-out: t½): 18 min
clearance ([6]; intravenous, patients, read-out: Mean (±SD) plasma clearance (CLp) (converted)): 538 mL/min
Vd ([6]; intravenous, patients, read-out: mean (±SD) volume of distribution (Vss)): 22.9 L
half-life ([6]; intravenous, patients, read-out: terminal half-life (t½)): 12 to 60 min
clearance ([6]; iv, 1.2 mg/m^2, 1.2 mg/m^2, 1 h IV infusion, individual patient, read-out: CLp): 12.5 mL/min/kg
Vd ([6]; iv, 1.2 mg/m^2, 1.2 mg/m^2, 1 h IV infusion, individual patient, read-out: Vss): 0.23 L/kg
half-life ([6]; iv, 1.2 mg/m^2, 1.2 mg/m^2, 1 h IV infusion, individual patient, read-out: t½): 6 min
clearance ([6]; iv, 2.4 mg/m^2, 2.4 mg/m^2, 1 h IV infusion, individual patient, read-out: CLp): 18.4 mL/min/kg
Vd ([6]; iv, 2.4 mg/m^2, 2.4 mg/m^2, 1 h IV infusion, individual patient, read-out: Vss): 0.3 L/kg
half-life ([6]; iv, 2.4 mg/m^2, 2.4 mg/m^2, 1 h IV infusion, individual patient, read-out: t½): 6 min
clearance ([6]; iv, 4.8 mg/m^2, 4.8 mg/m^2, 1 h IV infusion, individual patient, read-out: CLp): 13.3 mL/min/kg
Vd ([6]; iv, 4.8 mg/m^2, 4.8 mg/m^2, 1 h IV infusion, individual patient, read-out: Vss): 0.19 L/kg
half-life ([6]; iv, 4.8 mg/m^2, 4.8 mg/m^2, 1 h IV infusion, individual patient, read-out: t½): 10 min
Vd ([6]; iv, 9.6 mg/m^2, 9.6 mg/m^2, 1 h IV infusion, individual patients, read-out: Vss): 0.15 L/kg
half-life ([6]; iv, 9.6 mg/m^2, 9.6 mg/m^2, 1 h IV infusion, individual patients, read-out: t½): 16 min
AUC vs dose ([6]; over the range 0.6-25 mg/m2): approximately dose proportional
